Assay results taken from patent publication US20230257453A1 (published 2023).
Read-outs that look alike come from different tables or passages of the source.

Columns and labels:
Test in all cases: ELISA
[1] = biological target: T1, denatured human collagen type IV (UniProt P02462 173-1669; P08572 184-1712)
[2] = biological target: T2, denatured human collagen I (UniProt P02452 162-1218; P08123 80-1119)
[3] = biological target: T2, denatured human collagen I; remark: listed apart in the source
[4] = biological target: T1, denatured human collagen type IV; remark: listed apart in the source

T2 sequence (P02452 162-1218 A1075T, chain 1 of 2): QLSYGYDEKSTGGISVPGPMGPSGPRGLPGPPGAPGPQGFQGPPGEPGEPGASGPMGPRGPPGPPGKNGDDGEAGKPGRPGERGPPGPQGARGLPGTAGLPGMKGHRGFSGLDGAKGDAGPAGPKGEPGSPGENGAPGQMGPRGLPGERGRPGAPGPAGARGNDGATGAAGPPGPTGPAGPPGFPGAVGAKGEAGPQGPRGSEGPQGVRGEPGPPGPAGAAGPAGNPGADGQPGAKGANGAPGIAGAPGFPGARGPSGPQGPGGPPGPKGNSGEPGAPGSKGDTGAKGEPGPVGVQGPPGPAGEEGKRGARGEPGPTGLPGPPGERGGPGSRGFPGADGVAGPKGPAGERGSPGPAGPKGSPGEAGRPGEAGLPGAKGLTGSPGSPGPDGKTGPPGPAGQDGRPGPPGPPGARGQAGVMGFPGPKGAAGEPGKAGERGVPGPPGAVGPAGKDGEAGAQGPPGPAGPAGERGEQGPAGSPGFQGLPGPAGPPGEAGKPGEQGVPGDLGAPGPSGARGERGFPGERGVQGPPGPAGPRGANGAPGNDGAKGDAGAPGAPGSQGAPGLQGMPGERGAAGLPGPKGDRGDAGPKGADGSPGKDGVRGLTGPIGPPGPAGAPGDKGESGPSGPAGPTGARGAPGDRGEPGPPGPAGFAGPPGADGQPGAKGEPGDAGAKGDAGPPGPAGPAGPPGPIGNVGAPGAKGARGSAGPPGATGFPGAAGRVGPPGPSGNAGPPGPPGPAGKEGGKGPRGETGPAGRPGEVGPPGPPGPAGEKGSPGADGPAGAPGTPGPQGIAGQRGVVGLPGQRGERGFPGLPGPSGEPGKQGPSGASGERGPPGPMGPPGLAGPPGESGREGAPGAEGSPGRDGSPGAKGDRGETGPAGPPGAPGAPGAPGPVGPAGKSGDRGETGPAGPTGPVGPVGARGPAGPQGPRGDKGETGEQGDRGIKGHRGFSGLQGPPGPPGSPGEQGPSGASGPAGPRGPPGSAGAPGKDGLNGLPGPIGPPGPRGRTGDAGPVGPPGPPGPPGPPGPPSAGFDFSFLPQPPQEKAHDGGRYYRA
T2 sequence (P08123 80-1119, chain 2 of 2): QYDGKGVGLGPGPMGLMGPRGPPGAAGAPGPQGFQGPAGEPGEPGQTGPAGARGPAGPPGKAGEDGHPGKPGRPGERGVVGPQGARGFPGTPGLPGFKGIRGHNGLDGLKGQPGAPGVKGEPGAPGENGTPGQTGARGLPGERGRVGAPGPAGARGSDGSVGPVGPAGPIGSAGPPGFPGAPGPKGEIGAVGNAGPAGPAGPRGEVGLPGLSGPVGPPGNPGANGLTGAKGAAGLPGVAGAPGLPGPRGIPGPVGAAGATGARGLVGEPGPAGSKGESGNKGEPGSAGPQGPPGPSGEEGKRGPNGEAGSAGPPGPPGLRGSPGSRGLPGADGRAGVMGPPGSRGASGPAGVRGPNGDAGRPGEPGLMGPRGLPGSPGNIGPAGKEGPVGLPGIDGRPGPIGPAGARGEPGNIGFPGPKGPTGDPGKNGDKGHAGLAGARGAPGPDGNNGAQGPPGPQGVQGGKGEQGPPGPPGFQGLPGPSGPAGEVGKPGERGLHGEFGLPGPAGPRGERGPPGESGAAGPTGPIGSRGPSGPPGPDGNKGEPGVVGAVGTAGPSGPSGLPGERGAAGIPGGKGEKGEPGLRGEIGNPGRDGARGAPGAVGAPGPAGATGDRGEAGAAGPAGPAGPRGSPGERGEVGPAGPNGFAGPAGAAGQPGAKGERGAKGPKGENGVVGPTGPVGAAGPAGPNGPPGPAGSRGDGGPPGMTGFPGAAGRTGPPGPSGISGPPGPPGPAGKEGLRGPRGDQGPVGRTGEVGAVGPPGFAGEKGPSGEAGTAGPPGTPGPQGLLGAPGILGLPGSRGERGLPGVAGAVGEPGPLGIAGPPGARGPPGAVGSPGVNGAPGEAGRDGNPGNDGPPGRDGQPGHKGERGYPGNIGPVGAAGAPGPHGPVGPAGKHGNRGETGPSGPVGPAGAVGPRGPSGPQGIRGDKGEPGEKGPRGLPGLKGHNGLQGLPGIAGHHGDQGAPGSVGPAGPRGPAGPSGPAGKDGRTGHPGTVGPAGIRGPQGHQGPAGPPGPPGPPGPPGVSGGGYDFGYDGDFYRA
T1 sequence (P02462 173-1669, chain 1 of 2): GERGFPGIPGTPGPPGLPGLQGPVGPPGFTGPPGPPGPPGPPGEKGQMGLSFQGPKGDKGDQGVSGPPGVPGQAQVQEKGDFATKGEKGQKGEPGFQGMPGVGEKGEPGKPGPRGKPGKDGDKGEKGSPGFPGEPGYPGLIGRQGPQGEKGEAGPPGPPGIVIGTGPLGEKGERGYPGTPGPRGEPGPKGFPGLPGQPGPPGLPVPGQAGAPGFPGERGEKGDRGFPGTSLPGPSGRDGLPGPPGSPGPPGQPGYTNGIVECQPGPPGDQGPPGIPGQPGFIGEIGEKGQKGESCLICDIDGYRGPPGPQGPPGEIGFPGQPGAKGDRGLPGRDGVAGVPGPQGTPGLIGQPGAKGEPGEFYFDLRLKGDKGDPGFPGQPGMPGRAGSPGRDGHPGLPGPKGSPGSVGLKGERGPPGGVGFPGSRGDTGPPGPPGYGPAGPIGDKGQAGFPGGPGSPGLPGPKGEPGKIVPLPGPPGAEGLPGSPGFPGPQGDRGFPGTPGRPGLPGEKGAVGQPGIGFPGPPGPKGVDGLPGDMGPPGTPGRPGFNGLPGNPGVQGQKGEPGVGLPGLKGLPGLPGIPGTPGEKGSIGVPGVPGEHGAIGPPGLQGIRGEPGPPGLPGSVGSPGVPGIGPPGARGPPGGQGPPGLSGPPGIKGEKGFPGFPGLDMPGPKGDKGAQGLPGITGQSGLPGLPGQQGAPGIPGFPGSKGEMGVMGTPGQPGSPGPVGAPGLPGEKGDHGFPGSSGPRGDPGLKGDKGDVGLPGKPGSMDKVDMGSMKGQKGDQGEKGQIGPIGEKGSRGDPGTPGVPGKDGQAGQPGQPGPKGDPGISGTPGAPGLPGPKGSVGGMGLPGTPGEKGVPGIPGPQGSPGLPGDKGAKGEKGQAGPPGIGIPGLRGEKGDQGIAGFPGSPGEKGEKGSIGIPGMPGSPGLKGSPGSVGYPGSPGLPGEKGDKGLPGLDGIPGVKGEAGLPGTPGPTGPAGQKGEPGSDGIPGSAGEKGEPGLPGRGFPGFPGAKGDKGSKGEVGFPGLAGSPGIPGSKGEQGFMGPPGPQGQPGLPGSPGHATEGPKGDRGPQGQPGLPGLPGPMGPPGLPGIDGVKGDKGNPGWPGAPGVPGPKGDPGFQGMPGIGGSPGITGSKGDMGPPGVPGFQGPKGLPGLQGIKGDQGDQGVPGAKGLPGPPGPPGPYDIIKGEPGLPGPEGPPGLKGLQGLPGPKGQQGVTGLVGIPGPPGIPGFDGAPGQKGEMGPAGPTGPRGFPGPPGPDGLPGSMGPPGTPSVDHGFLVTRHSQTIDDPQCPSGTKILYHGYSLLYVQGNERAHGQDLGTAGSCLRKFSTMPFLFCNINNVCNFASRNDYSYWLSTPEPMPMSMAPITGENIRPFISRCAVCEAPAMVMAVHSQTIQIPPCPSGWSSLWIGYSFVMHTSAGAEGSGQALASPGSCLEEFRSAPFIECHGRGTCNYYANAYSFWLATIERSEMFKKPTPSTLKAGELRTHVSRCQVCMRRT
T1 sequence (P08572 184-1712, chain 2 of 2): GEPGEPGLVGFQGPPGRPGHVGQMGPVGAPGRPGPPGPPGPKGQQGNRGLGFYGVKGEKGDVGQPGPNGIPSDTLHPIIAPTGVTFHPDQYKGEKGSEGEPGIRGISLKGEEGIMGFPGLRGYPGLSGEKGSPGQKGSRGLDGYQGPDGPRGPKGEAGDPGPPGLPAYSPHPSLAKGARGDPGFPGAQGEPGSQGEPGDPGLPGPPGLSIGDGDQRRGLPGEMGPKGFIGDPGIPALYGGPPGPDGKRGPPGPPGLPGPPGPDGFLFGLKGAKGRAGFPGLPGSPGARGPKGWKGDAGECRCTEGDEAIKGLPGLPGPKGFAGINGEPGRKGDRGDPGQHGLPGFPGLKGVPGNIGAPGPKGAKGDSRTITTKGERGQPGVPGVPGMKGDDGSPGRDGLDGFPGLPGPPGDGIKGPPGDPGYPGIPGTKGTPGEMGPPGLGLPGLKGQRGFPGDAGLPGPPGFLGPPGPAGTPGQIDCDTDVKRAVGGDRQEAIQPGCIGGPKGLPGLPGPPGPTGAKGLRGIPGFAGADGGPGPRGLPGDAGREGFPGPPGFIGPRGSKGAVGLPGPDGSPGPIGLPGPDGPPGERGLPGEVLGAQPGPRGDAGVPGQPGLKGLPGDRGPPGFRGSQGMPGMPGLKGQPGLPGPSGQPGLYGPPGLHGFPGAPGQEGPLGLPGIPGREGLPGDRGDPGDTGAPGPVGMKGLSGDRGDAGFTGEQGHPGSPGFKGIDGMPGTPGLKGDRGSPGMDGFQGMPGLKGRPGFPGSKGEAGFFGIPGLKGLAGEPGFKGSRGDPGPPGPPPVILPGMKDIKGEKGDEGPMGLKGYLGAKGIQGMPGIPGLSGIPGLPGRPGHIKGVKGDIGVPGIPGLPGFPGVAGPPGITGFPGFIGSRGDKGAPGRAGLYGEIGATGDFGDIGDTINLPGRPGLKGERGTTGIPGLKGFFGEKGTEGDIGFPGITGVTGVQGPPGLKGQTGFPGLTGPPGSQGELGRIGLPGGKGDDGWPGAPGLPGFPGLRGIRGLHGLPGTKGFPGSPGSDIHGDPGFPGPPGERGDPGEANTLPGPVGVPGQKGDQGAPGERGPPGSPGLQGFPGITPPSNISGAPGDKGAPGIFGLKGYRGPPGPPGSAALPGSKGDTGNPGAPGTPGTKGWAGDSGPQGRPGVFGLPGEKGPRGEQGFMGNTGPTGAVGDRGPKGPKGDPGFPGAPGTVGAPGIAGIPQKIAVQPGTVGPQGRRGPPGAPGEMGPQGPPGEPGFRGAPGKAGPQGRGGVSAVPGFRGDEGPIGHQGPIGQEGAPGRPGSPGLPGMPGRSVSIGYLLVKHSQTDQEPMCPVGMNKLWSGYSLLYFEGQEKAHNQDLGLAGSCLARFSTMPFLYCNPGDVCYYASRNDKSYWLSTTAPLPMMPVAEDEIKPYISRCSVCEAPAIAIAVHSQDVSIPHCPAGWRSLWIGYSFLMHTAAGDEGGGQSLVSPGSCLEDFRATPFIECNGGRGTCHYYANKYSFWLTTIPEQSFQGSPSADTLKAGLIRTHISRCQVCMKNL

Row | Binder | EC50 [1] [nM] | EC50 [2] [nM] | EC50 [3] [nM] | EC50 [4] [nM]
1 | P27542716 (antibody, V domains shown) VH: EVQLVESGGGLVQPGGSLRLSCAASGFSLSTPGMGVWWVRQAPGKGLEWVADIWWDDNKYTNPSLKSRFTISRDNAKNSLYLQMNSLRAEDTAVYYCARRANYGNPYYAQDYWGQGTTVTVSS VL: DIVMTQTPLSLPVTPGEPASISCRSSQSIVSSWGNTYLEWYLQKPGQSPQLLIYKVSNRFSGVPDRFSGSGSGTDFTLKISRVEAEDVGVYYCFQGSHVPWTFGQGTKVEIKR | 6.37 | 14.8 | – | –
2 | P27522716 (antibody, V domains shown) VH: EVQLVESGGGLVQPGGSLRLSCAASGFSFSTPGMGVWWVRQAPGKGLEWVADIWWDDNKYTNPSLKSRFTISRDNAKNSLYLQMNSLRAEDTAVYYCARRANYGNPYYAQDYWGQGTTVTVSS VL: DIVMTQTPLSLPVTPGEPASISCRSSQSIVSSWGNTYLEWYLQKPGQSPQLLIYKVSNRFSGVPDRFSGSGSGTDFTLKISRVEAEDVGVYYCFQGSHVPWTFGQGTKVEIKR | 16.1 | 22.1 | – | –
3 | P27532716 (antibody, V domains shown) VH: EVQLVESGGGLVQPGGSLRLSCAASGFTLSTPGMGVWWVRQAPGKGLEWVADIWWDDNKYTNPSLKSRFTISRDNAKNSLYLQMNSLRAEDTAVYYCARRANYGNPYYAQDYWGQGTTVTVSS VL: DIVMTQTPLSLPVTPGEPASISCRSSQSIVSSWGNTYLEWYLQKPGQSPQLLIYKVSNRFSGVPDRFSGSGSGTDFTLKISRVEAEDVGVYYCFQGSHVPWTFGQGTKVEIKR | 9.01 | 18.3 | – | –
4 | P27122797 (antibody, V domains shown) VH: QVTLKESGPALVKPTQTLTLTCTFSGFSLSTSGMGVGWIRQPPGKALEWLADIWWDDNKYANPSLKSRLTISKDTSKNQVVLTMTNMDPVDTATYYCARRANYGNPYYAQDYWGQGTTVTVSS VL: DIVMTQTPLSLPVTPGEPASISCRSSQSIVHSSGNTYLEWYLQKPGQSPQLLIYKVSNRFSGVPDRFSGSGSGTDFTLKISRVEAEDVGVYYCFQGSHVPWTFGQGTKVEIKR | 32.6 | 8570 | – | –
5 | P27122798 (antibody) chain 1: not shown chain 2: DIVMTQTPLSLPVTPGEPASISCRSSQSIVHSNANTYLEWYLQKPGQSPQLLIYKVSNRFSGVPDRFSGSGSGTDFTLKISRVEAEDVGVYYCFQGSHVPWTFGQGTKVEIKRTVAAPSVFIFPPSDEQLKSGTASVVCLLNNFYPREAKVQWKVDNALQSGNSQESVTEQDSKDSTYSLSSTLTLSKADYEKHKVYACEVTHQGLSSPVTKSFNRGEC | 10.8 | 27.2 | – | –
6 | P27152797 (antibody) chain 1: not shown chain 2: DIVMTQTPLSLPVTPGEPASISCRSSQSIVHSSGNTYLEWYLQKPGQSPQLLIYKVSNRFSGVPDRFSGSGSGTDFTLKISRVEAEDVGVYYCFQGSHVPWTFGQGTKVEIKRTVAAPSVFIFPPSDEQLKSGTASVVCLLNNFYPREAKVQWKVDNALQSGNSQESVTEQDSKDSTYSLSSTLTLSKADYEKHKVYACEVTHQGLSSPVTKSFNRGEC | 9.3 | 26 | – | –
7 | P27202713 (antibody) chain 1: not shown chain 2: DIVMTQTPLSLPVTPGEPASISCRSSQSIVHSNGNTYLEWYLQKPGQSPQLLIYKVSNRFSGVPDRFSGSGSGTDFTLKISRVEAEDVGVYYCFQGSHVPWTFGQGTKVEIKRTVAAPSVFIFPPSDEQLKSGTASVVCLLNNFYPREAKVQWKVDNALQSGNSQESVTEQDSKDSTYSLSSTLTLSKADYEKHKVYACEVTHQGLSSPVTKSFNRGEC | – | – | – | 7.41
8 | P27202716 (antibody) chain 1: not shown chain 2: DIVMTQTPLSLPVTPGEPASISCRSSQSIVSSWGNTYLEWYLQKPGQSPQLLIYKVSNRFSGVPDRFSGSGSGTDFTLKISRVEAEDVGVYYCFQGSHVPWTFGQGTKVEIKRTVAAPSVFIFPPSDEQLKSGTASVVCLLNNFYPREAKVQWKVDNALQSGNSQESVTEQDSKDSTYSLSSTLTLSKADYEKHKVYACEVTHQGLSSPVTKSFNRGEC | – | – | – | 3.34
9 | P27202714 (antibody) chain 1: not shown chain 2: DIVMTQTPLSLPVTPGEPASISCRSSQSIVHSQGNTYLEWYLQKPGQSPQLLIYKVSNRFSGVPDRFSGSGSGTDFTLKISRVEAEDVGVYYCFQGSHVPWTFGQGTKVEIKRTVAAPSVFIFPPSDEQLKSGTASVVCLLNNFYPREAKVQWKVDNALQSGNSQESVTEQDSKDSTYSLSSTLTLSKADYEKHKVYACEVTHQGLSSPVTKSFNRGEC | – | – | – | 30.4

The next lines start with the values.

Row | EC50 [1] [nM] | EC50 [2] [nM] | EC50 [3] [nM] | EC50 [4] [nM] | Binder
10 | 12 | 36.2 | – | – | P27562716 (antibody, V domains shown) VH: EVQLVESGGGLVQPGGSLRLSCAASGFTFSTPGMGVWWVRQAPGKGLEWLADIWWDDNKYTNPSLKSRFTISRDNAKNSLYLQMNSLRAEDTAVYYCARRANYGNPYYAQDYWGQGTTVTVSS VL: DIVMTQTPLSLPVTPGEPASISCRSSQSIVSSWGNTYLEWYLQKPGQSPQLLIYKVSNRFSGVPDRFSGSGSGTDFTLKISRVEAEDVGVYYCFQGSHVPWTFGQGTKVEIKR
11 | 18.8 | 20800 | – | – | P27572716 (antibody, V domains shown) VH: EVQLVESGGGLVQPGGSLRLSCAASGFTFSTPGMGVWWVRQAPGKGLEWVADIWWDDNKYTNPSLKSRLTISRDNAKNSLYLQMNSLRAEDTAVYYCARRANYGNPYYAQDYWGQGTTVTVSS VL: DIVMTQTPLSLPVTPGEPASISCRSSQSIVSSWGNTYLEWYLQKPGQSPQLLIYKVSNRFSGVPDRFSGSGSGTDFTLKISRVEAEDVGVYYCFQGSHVPWTFGQGTKVEIKR
12 | 12.2 | 36.6 | – | – | P27552716 (antibody, V domains shown) VH: EVQLVESGGGLVQPGGSLRLSCAASGFTFSTPGMGVWWIRQAPGKGLEWVADIWWDDNKYTNPSLKSRFTISRDNAKNSLYLQMNSLRAEDTAVYYCARRANYGNPYYAQDYWGQGTTVTVSS VL: DIVMTQTPLSLPVTPGEPASISCRSSQSIVSSWGNTYLEWYLQKPGQSPQLLIYKVSNRFSGVPDRFSGSGSGTDFTLKISRVEAEDVGVYYCFQGSHVPWTFGQGTKVEIKR
13 | 9.91 | – | 11.9 | – | P27652716 (antibody, V domains shown) VH: QVTLKESGPALVKPTQTLTLTCTFSGFSLSTPGMGVWWIRQPPGEGLEWLADIWWDDNKYTNPSLKSRLTISKDTSKNQVVLTMTNMDPVDTATYYCARRANYGNPYYAQDYWGQGTTVTVSS VL: DIVMTQTPLSLPVTPGEPASISCRSSQSIVSSWGNTYLEWYLQKPGQSPQLLIYKVSNRFSGVPDRFSGSGSGTDFTLKISRVEAEDVGVYYCFQGSHVPWTFGQGTKVEIKR
14 | 4.01 | – | 3.73 | – | P27622716 (antibody) chain 1: not shown chain 2: DIVMTQTPLSLPVTPGEPASISCRSSQSIVSSWGNTYLEWYLQKPGQSPQLLIYKVSNRFSGVPDRFSGSGSGTDFTLKISRVEAEDVGVYYCFQGSHVPWTFGQGTKVEIKRTVAAPSVFIFPPSDEQLKSGTASVVCLLNNFYPREAKVQWKVDNALQSGNSQESVTEQDSKDSTYSLSSTLTLSKADYEKHKVYACEVTHQGLSSPVTKSFNRGEC
15 | – | – | – | 4.97 | P27912716 (antibody) chain 1: not shown chain 2: DIVMTQTPLSLPVTPGEPASISCRSSQSIVSSWGNTYLEWYLQKPGQSPQLLIYKVSNRFSGVPDRFSGSGSGTDFTLKISRVEAEDVGVYYCFQGSHVPWTFGQGTKVEIKRTVAAPSVFIFPPSDEQLKSGTASVVCLLNNFYPREAKVQWKVDNALQSGNSQESVTEQDSKDSTYSLSSTLTLSKADYEKHKVYACEVTHQGLSSPVTKSFNRGEC
16 | – | – | – | 2.63 | P28612716 (antibody) chain 1: not shown chain 2: DIVMTQTPLSLPVTPGEPASISCRSSQSIVSSWGNTYLEWYLQKPGQSPQLLIYKVSNRFSGVPDRFSGSGSGTDFTLKISRVEAEDVGVYYCFQGSHVPWTFGQGTKVEIKRTVAAPSVFIFPPSDEQLKSGTASVVCLLNNFYPREAKVQWKVDNALQSGNSQESVTEQDSKDSTYSLSSTLTLSKADYEKHKVYACEVTHQGLSSPVTKSFNRGEC
17 | – | – | – | 6.48 | P27962797 (antibody) chain 1: not shown chain 2: DIVMTQTPLSLPVTPGEPASISCRSSQSIVHSSGNTYLEWYLQKPGQSPQLLIYKVSNRFSGVPDRFSGSGSGTDFTLKISRVEAEDVGVYYCFQGSHVPWTFGQGTKVEIKRTVAAPSVFIFPPSDEQLKSGTASVVCLLNNFYPREAKVQWKVDNALQSGNSQESVTEQDSKDSTYSLSSTLTLSKADYEKHKVYACEVTHQGLSSPVTKSFNRGEC
18 | – | – | – | 2.53 | P27962798 (antibody) chain 1: not shown chain 2: DIVMTQTPLSLPVTPGEPASISCRSSQSIVHSNANTYLEWYLQKPGQSPQLLIYKVSNRFSGVPDRFSGSGSGTDFTLKISRVEAEDVGVYYCFQGSHVPWTFGQGTKVEIKRTVAAPSVFIFPPSDEQLKSGTASVVCLLNNFYPREAKVQWKVDNALQSGNSQESVTEQDSKDSTYSLSSTLTLSKADYEKHKVYACEVTHQGLSSPVTKSFNRGEC
19 | – | – | – | 57.4 | P27902713 (antibody) chain 1: not shown chain 2: DIVMTQTPLSLPVTPGEPASISCRSSQSIVHSNGNTYLEWYLQKPGQSPQLLIYKVSNRFSGVPDRFSGSGSGTDFTLKISRVEAEDVGVYYCFQGSHVPWTFGQGTKVEIKRTVAAPSVFIFPPSDEQLKSGTASVVCLLNNFYPREAKVQWKVDNALQSGNSQESVTEQDSKDSTYSLSSTLTLSKADYEKHKVYACEVTHQGLSSPVTKSFNRGEC
20 | – | – | – | 4.5 | P27922716 (antibody) chain 1: not shown chain 2: DIVMTQTPLSLPVTPGEPASISCRSSQSIVSSWGNTYLEWYLQKPGQSPQLLIYKVSNRFSGVPDRFSGSGSGTDFTLKISRVEAEDVGVYYCFQGSHVPWTFGQGTKVEIKRTVAAPSVFIFPPSDEQLKSGTASVVCLLNNFYPREAKVQWKVDNALQSGNSQESVTEQDSKDSTYSLSSTLTLSKADYEKHKVYACEVTHQGLSSPVTKSFNRGEC
21 | – | – | – | 18.4 | P27952798 (antibody) chain 1: not shown chain 2: DIVMTQTPLSLPVTPGEPASISCRSSQSIVHSNANTYLEWYLQKPGQSPQLLIYKVSNRFSGVPDRFSGSGSGTDFTLKISRVEAEDVGVYYCFQGSHVPWTFGQGTKVEIKRTVAAPSVFIFPPSDEQLKSGTASVVCLLNNFYPREAKVQWKVDNALQSGNSQESVTEQDSKDSTYSLSSTLTLSKADYEKHKVYACEVTHQGLSSPVTKSFNRGEC
